The supplement of paper PMC10567573

B1: KRT18 (parent)
chain: RVRSLETENRRLESKIREHLEKKG
B2: PKD2L1 (parent)
chain: VFIFYYVVEEILELHIHRLRYLSS

Variants of: B1
Assay: protein stability index of a GFP-peptide fusion (GPS, HEK-293T) (PSI 1-6); higher = more stable
Settings: c terminus: a fixed tail appended
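Further: lentivirally expressed fusions sorted by FACS into six bins by GFP to DsRed ratio, PSI derived from sequencing read proportions per bin multiplied by bin number.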

Variant	protein stability index
E8M	4.32
E8Q	3.38
E8R	3.46
E8T	4.2
E8Y	3.82
N9A	2.73
N9D	5.09
N9E	4.97
N9F	2.3
N9G	3.48
N9H	4.51
N9I	2
N9L	1.79
N9M	2.85
N9Q	4.74
N9R	3.81
N9V	1.9
N9W	1.85
N9Y	3.85
R10A	4.16
R10C	4
R10D	4.3
R10E	4.79
R10F	4.76
R10G	4.68
R10H	4.74

Variant	protein stability index
R10I	4.42
R10K	4.36
R10L	4.49
R10M	5.26
R10N	4.69
R10P	5.08
R10S	4.88
R10T	4.71
R10V	5.08
R10Y	4.94
R11A	4.43
R11C	4.96
R11D	5.08
R11E	4.73
R11F	4.74
R11G	3.96
R11H	4.91
R11I	4.47
R11L	4.31
R11N	4.35
R11S	5.33
R11T	4.94
R11V	4.79
R11W	3.69
R11Y	3.33
L12C	4.78

Variant	protein stability index
L12D	4.21
L12E	5.88
L12G	5.35
L12H	5.05
L12I	4.77
L12K	5.49
L12M	3.02
L12N	5.35
L12P	5.41
L12Q	5.19
L12T	5.22
L12V	4.69
L12Y	4.91
E13A	4.22
E13C	4.3
E13D	2.98
E13F	2.16
E13G	4.75
E13H	4.21
E13I	2.37
E13K	4.84
E13M	3.26
E13N	4.89
E13P	4.33
E13Q	3.95
E13R	3.99

Variant	protein stability index
E13S	3.91
E13T	4.1
E13V	3.74
E13W	3.85
E13Y	3.05
S14A	4.6
S14C	3.84
S14E	4.78
S14G	4.96
S14H	4.92
S14I	4.38
S14K	4.19
S14L	4.59
S14N	3.68
S14P	4.86
S14Q	4.99
S14T	4.47
S14V	4.16
S14W	3.98
S14Y	4.24
K15A	4.53
K15C	4.06
K15D	3.69
K15E	5.16
K15F	3.04
K15H	3.6

Variant	protein stability index
K15I	4.41
K15L	3.88
K15M	4.02
K15N	5.24
K15P	5.23
K15Q	4.56
K15R	4.67
K15S	5.16
K15T	4.76
K15W	3.1
K15Y	4.7
I16C	4.79
I16D	5.71
I16E	3.79
I16G	5.45
I16L	4.32
I16M	5.17
I16N	5.56
I16P	5.28
I16Q	5.09
I16S	5.16
I16T	4.29
I16V	4.37
I16W	4.96
I16Y	4.63
R17A	3.79

Variant	protein stability index
R17C	5.24
R17D	5.49
R17F	4.55
R17G	5.38
R17H	5.06
R17I	4.37
R17K	4.39
R17L	4.22
R17M	4.53
R17N	4.25
R17P	4.84
R17Q	4.54
R17S	5.14
R17T	5
R17V	4.96
R17Y	4.92
E18A	4.46
E18C	3.81
E18D	4.53
E18F	3.22
E18G	4.91
E18H	3.99
E18I	4.29
E18K	3.95
E18M	3.94
E18N	4.52

Variant	protein stability index
E18P	4.88
E18Q	3.75
E18R	3.99
E18S	4.55
E18T	4.25
E18V	3.88
E18W	4.51
E18Y	4.07
H19A	4.46
H19C	3.82
H19D	5.22
H19E	5.26
H19F	4
H19G	5.48
H19I	4.03
H19N	4.78
H19P	5.53
H19Q	5.04
H19S	4.79
H19T	5.01
H19V	4.49
H19W	2.25
L20A	5.1
L20E	5.7
L20F	4.59
L20G	4.97

Variant	protein stability index
L20H	5.35
L20I	4.79
L20K	4.96
L20M	5.12
L20N	4.78
L20P	5.58
L20R	5.23
L20S	5.44
L20T	4.99
L20V	4.94
L20W	3.95
E21A	4.21
E21C	4.28
E21D	4.98
E21F	3.67
E21G	4.62
E21H	4.43
E21I	3.9
E21K	3.75
E21L	3.19
E21M	4.15
E21N	4.11
E21Q	3.74
E21R	3.99
E21S	4.36
E21T	4.2

Variant	protein stability index
E21V	3.93
E21W	3.32
K22A	3.65
K22C	4.61
K22E	4.86
K22F	4.16
K22G	4.06
K22I	3.85
K22L	4.12
K22M	3.73
K22N	4.09
K22P	4.82
K22Q	4.89
K22R	4.21
K22S	4.05
K22T	4.45
K22V	4.52
K22W	3.02
K22Y	4.08
K23A	4.56
K23C	3.86
K23D	5.45
K23F	3.76
K23G	4.75
K23H	3.96
K23I	3.2

Variant	protein stability index
K23L	3.87
K23N	4.78
K23Q	4.32
K23S	4.52
K23T	4.22
K23V	4.14
G24C	3.69
G24D	4.87
G24F	3.56
G24H	4.48
G24I	3.83
G24K	4.57
G24L	4.03
G24M	3.73
G24N	4.61
G24P	4.13
G24Q	4.14
G24R	3.81
G24V	4.01
G24W	4.04
G24Y	3.92

Variants of: B2
Assay: as above
Settings: c terminus: a fixed tail appended

Variant	protein stability index
S24N	3.95
E9G	1.71
I3D	3.59
F4V	3.48
V7N	2.13
Y5M	2.79
F2P	2
E10N	2.86
R20K	2.34
R20F	2.85
I11Y	2.68
F2L	2.11
Y21H	2.96
H15R	2.97
F4Y	2.36
R20Y	2.76
F2Q	3.67
E13T	2.24
Y21D	1.89
L22T	3.77
R20D	4.23
E13I	3.04
L22C	3.65
F4S	2.7
Y6E	1.79
Y21Q	3.68
S23F	2.05

Variant	protein stability index
I16C	3.5
V8L	2.74
E10T	1.62
H15D	2.24
V1W	2.35
V7P	2.85
F2M	4.81
V8N	2.16
E13L	3.25
V7Q	3.24
I16D	3.73
S24K	1.12
H17Q	4.68
I11C	4.54
S23R	4.53
S23Y	2.19
V8G	4.19
E13S	1.92
I3G	2.35
E10A	3.28
F4M	2.56
V8W	2.57
Y5S	2.86
L12Y	2.89
R18Q	2.37
R18V	1.65
L22E	2.43

Variant	protein stability index
E13V	3.39
E10R	2.41
V1H	2.21
L12N	2.41
E13K	2.36
F2H	1.63
L12E	2.76
V8I	3.22
R18H	1.63
I3M	3.13
V1C	1.97
Y21K	2.84
I11F	3.73
E9N	2.21
L14R	2.59
Y21N	1.61
V7D	3.12
H17L	2.14
S23E	2.12
V1L	2.15
Y6A	1.41
V1S	1.97
I11V	3.46
I16Y	2.18
H15N	3.63
